From patent US20230111418A1 (TESARO, published 2023)

Experiments:
[1] = biological target: T1, Human PD-1 on the cell surface (human, UniProt Q15116 25-288); test: cell-based or functional assay
[2] = biological target: T1, Human PD-1 on the cell surface; test: cell-based or functional assay; remark: listed apart in the source
[3] = biological target: T2, Cynomolgus monkey PD-1 expressed on CHO-K1 cells (cynomolgus monkey, UniProt B0LAJ3 25-288); test: flow cytometry on CHO-K1 cells expressing cynomolgus monkey PD-1
T2 construct: also called Cyno PD-1; cell surface cynomolgus PD-1

[4] = biological target: T1, Human PD-1 on the cell surface; test: flow cytometry on CHO-K1 cells expressing human PD-1
[5] = biological target: T3, Human PD-1 (SPR analyte/ligand; human PD-1 Fc fusion) (human, UniProt Q15116 25-167, limits assumed); test: SPR
T3 construct: not shown: Fc part of the fusion

[6] = biological target: T4, Cynomolgus monkey PD-1 (SPR analyte/ligand; cynomolgus monkey PD-1 Fc fusion) (cynomolgus monkey, UniProt B0LAJ3 25-170); test: SPR
T4 construct: also called Cyno PD-1
T4 sequence (B0LAJ3 entry or part of it limits assumed): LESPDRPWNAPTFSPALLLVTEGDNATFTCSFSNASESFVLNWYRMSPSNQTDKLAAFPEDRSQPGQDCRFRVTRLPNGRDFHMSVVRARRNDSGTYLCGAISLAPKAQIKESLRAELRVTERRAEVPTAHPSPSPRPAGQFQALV

T3 sequence (Q15116 25-167 limits assumed): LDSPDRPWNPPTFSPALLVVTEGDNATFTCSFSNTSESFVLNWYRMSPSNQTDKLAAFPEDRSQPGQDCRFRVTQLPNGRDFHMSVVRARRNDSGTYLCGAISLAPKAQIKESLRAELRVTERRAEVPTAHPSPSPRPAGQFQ
T1 sequence (Q15116 25-288): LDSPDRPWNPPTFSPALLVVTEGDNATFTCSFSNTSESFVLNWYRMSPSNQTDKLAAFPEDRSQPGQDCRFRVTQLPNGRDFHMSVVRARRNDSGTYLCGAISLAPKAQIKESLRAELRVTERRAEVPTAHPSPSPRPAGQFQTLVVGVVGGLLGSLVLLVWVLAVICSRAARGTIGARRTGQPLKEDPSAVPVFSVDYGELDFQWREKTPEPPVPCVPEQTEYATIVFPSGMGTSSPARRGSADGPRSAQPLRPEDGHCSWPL
T2 sequence (B0LAJ3 entry or part of it limits assumed): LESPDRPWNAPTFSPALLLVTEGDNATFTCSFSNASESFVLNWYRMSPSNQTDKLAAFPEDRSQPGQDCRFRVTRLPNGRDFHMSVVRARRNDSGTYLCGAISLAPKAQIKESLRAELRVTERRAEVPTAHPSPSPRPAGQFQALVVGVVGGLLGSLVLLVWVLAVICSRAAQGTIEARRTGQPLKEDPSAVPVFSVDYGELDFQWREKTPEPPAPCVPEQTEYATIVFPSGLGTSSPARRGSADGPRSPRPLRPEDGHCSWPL

| mean IL-2 stimulation ratio in fRO assay, Day 3, across all dose levels [1] [ratio] | IL-2 stimulation ratio in fRO assay, 1 mg/kg, Baseline (n=6) [2] [ratio] | IL-2 stimulation ratio in fRO assay, 1 mg/kg, Day 3 (n=6) [2] [ratio] | IL-2 stimulation ratio in fRO assay, 1 mg/kg, Day 15 (n=6) [2] [ratio] | IL-2 stimulation ratio in fRO assay, 1 mg/kg, Day 22 (n=2) [2] [ratio] | IL-2 stimulation ratio in fRO assay, 1 mg/kg, Day 29 (n=2) [2] [ratio] | IL-2 stimulation ratio in fRO assay, 3 mg/kg, Baseline (n=3) [2] [ratio] | IL-2 stimulation ratio in fRO assay, 3 mg/kg, Day 3 (n=3) [2] [ratio] | IL-2 stimulation ratio in fRO assay, 3 mg/kg, Day 15 (n=3) [2] [ratio] | IL-2 stimulation ratio in fRO assay, 10 mg/kg, Baseline (n=4) [2] [ratio] | IL-2 stimulation ratio in fRO assay, 10 mg/kg, Day 3 (n=3) [2] [ratio] | IL-2 stimulation ratio in fRO assay, 10 mg/kg, Day 15 (n=1) [2] [ratio] | EC50 [3] [nM] | EC50 [4] [nM] | Kd [5] [nM] | koff [5] [s⁻¹] | kon [5] [M⁻¹ s⁻¹] | Kd [6] [nM] | koff [6] [s⁻¹] | kon [6] [M⁻¹ s⁻¹] | Binder |
| --- | --- | --- | --- | --- | --- | --- | --- | --- | --- | --- | --- | --- | --- | --- | --- | --- | --- | --- | --- | --- |
| 1 | 1.69 | 1.01 | 1 | 1.32 | 1.08 | 1.62 | 0.927 | 0.977 | 1.86 | 1.05 | 0.86 |  |  |  |  |  |  |  |  | exemplary humanized monoclonal anti-PD-1 antibody (human IGHG4*01 heavy chain with Ser to Pro hinge mutation at S228, human IGKC*01 kappa light chain; CDRs SEQ … (antibody, human IgG4 S228P, kappa, V domains shown, N-glycosylation at asparagine residue 293 (SEQ ID NO: 3)) VH: EVQLLESGGGLVQPGGSLRLSCAASGFTFSSYDMSWVRQAPGKGLEWVSTISGGGSYTYYQDSVKGRFTISRDNSKNTLYLQMNSLRAEDTAVYYCASPYYAMDYWGQGTTVTVSS VL: DIQLTQSPSFLSAYVGDRVTITCKASQDVGTAVAWYQQKPGKAPKLLIYWASTLHTGVPSRFSGSGSGTEFTLTISSLQPEDFATYYCQHYSSYPWTFGQGTKLEIKR |
|  |  |  |  |  |  |  |  |  |  |  |  | 3.4 | 2 | 0.3 | 0.00017 | 570000 | 0.53 | 0.00023 | 430000 | PD-1-binding agent (comprising SEQ ID NOs: 1 and 2) (antibody, V domains shown, It is probably the same humanized IgG4 (S228P)/kappa antibody as m2) VH: EVQLLESGGGLVQPGGSLRLSCAASGFTFSSYDMSWVRQAPGKGLEWVSTISGGGSYTYYQDSVKGRFTISRDNSKNTLYLQMNSLRAEDTAVYYCASPYYAMDYWGQGTTVTVSS VL: DIQLTQSPSFLSAYVGDRVTITCKASQDVGTAVAWYQQKPGKAPKLLIYWASTLHTGVPSRFSGSGSGTEFTLTISSLQPEDFATYYCQHYSSYPWTFGQGTKLEIKR |
